Reference: patent US20230135471A1, “UBIQUITIN VARIANTS WITH IMPROVED AFFINITY FOR 53BP1” (Integrated DNA Technologies, Inc., priority 2021, published 2023)

Target: 53BP1 fragment (a.a. 1221-1718) fused to an adenylate cyclase fragment (two-hybrid) (UniProt Q12888)
Test: cell-based or functional assay

Substance: i53 + R74K two-hybrid fusion (designed binder)
- Experiment 1 Average Enrichment: 0.12 log2
- Experiment 1 Rep 1 Enrichment: 0.04 log2
- Experiment 1 Rep 2 Enrichment: 0.21 log2
- Experiment 2 Average Enrichment: 0.13 log2
- Experiment 2 Rep 1 Enrichment: 0.1 log2
- Experiment 2 Rep 2 Enrichment: 0.17 log2

Substance: i53 + R74L two-hybrid fusion (designed binder)
- Experiment 1 Average Enrichment: 1.11 log2
- Experiment 1 Rep 1 Enrichment: 1.35 log2
- Experiment 1 Rep 2 Enrichment: 0.88 log2
- Experiment 2 Average Enrichment: 0.85 log2
- Experiment 2 Rep 1 Enrichment: 0.95 log2
- Experiment 2 Rep 2 Enrichment: 0.76 log2

Substance: i53 + R74M two-hybrid fusion (designed binder)
- Experiment 1 Average Enrichment: 1.04 log2
- Experiment 1 Rep 1 Enrichment: 1.16 log2
- Experiment 1 Rep 2 Enrichment: 0.91 log2
- Experiment 2 Average Enrichment: 0.68 log2
- Experiment 2 Rep 1 Enrichment: 0.68 log2
- Experiment 2 Rep 2 Enrichment: 0.68 log2

Substance: i53 + R74Q two-hybrid fusion (designed binder)
- Experiment 1 Average Enrichment: 2.29 log2
- Experiment 1 Rep 1 Enrichment: 2.6 log2
- Experiment 1 Rep 2 Enrichment: 1.98 log2
- Experiment 2 Average Enrichment: 1.54 log2
- Experiment 2 Rep 1 Enrichment: 1.56 log2
- Experiment 2 Rep 2 Enrichment: 1.52 log2

Substance: i53 + R74T two-hybrid fusion (designed binder)
- Experiment 1 Average Enrichment: 0.33 log2
- Experiment 1 Rep 1 Enrichment: 0.4 log2
- Experiment 1 Rep 2 Enrichment: 0.26 log2
- Experiment 2 Average Enrichment: 0.31 log2
- Experiment 2 Rep 1 Enrichment: 0.25 log2
- Experiment 2 Rep 2 Enrichment: 0.38 log2

Substance: i53 + R74V two-hybrid fusion (designed binder)
- Experiment 1 Average Enrichment: 1.51 log2
- Experiment 1 Rep 1 Enrichment: 1.58 log2
- Experiment 1 Rep 2 Enrichment: 1.44 log2
- Experiment 2 Average Enrichment: 0.95 log2
- Experiment 2 Rep 1 Enrichment: 1.19 log2
- Experiment 2 Rep 2 Enrichment: 0.7 log2

Substance: i53 + S20A two-hybrid fusion (designed binder)
- Experiment 1 Average Enrichment: 0.14 log2
- Experiment 1 Rep 1 Enrichment: 0.3 log2
- Experiment 1 Rep 2 Enrichment: -0.02 log2
- Experiment 2 Average Enrichment: -0.26 log2
- Experiment 2 Rep 1 Enrichment: -0.26 log2
- Experiment 2 Rep 2 Enrichment: -0.25 log2

Substance: i53 + S20C two-hybrid fusion (designed binder)
- Experiment 1 Average Enrichment: -0.08 log2
- Experiment 1 Rep 1 Enrichment: -0.36 log2
- Experiment 1 Rep 2 Enrichment: 0.2 log2
- Experiment 2 Average Enrichment: 0.05 log2
- Experiment 2 Rep 1 Enrichment: -0.1 log2
- Experiment 2 Rep 2 Enrichment: 0.21 log2

Substance: i53 + S20D two-hybrid fusion (designed binder)
- Experiment 1 Average Enrichment: -0.43 log2
- Experiment 1 Rep 1 Enrichment: -0.14 log2
- Experiment 1 Rep 2 Enrichment: -0.72 log2
- Experiment 2 Average Enrichment: 0.5 log2
- Experiment 2 Rep 1 Enrichment: 0.83 log2
- Experiment 2 Rep 2 Enrichment: 0.18 log2

Substance: i53 + S20N two-hybrid fusion (designed binder)
- Experiment 1 Average Enrichment: 0.31 log2
- Experiment 1 Rep 1 Enrichment: 0 log2
- Experiment 1 Rep 2 Enrichment: 0.61 log2
- Experiment 2 Average Enrichment: -0.25 log2
- Experiment 2 Rep 1 Enrichment: 0.12 log2
- Experiment 2 Rep 2 Enrichment: -0.61 log2

Substance: i53 + S20W two-hybrid fusion (designed binder)
- Experiment 1 Average Enrichment: -0.36 log2
- Experiment 1 Rep 1 Enrichment: -0.97 log2
- Experiment 1 Rep 2 Enrichment: 0.25 log2
- Experiment 2 Average Enrichment: 0.17 log2
- Experiment 2 Rep 1 Enrichment: 0.1 log2
- Experiment 2 Rep 2 Enrichment: 0.24 log2

Substance: i53 + S49A two-hybrid fusion (designed binder)
- Experiment 1 Average Enrichment: 0.5 log2
- Experiment 1 Rep 1 Enrichment: 0.62 log2
- Experiment 1 Rep 2 Enrichment: 0.39 log2
- Experiment 2 Average Enrichment: 0.41 log2
- Experiment 2 Rep 1 Enrichment: 0.76 log2
- Experiment 2 Rep 2 Enrichment: 0.06 log2

Substance: i53 + S49C two-hybrid fusion (designed binder)
- Experiment 1 Average Enrichment: 0.6 log2
- Experiment 1 Rep 1 Enrichment: 0.95 log2
- Experiment 1 Rep 2 Enrichment: 0.24 log2
- Experiment 2 Average Enrichment: -0.18 log2
- Experiment 2 Rep 1 Enrichment: -0.04 log2
- Experiment 2 Rep 2 Enrichment: -0.31 log2

Substance: i53 + S49D two-hybrid fusion (designed binder)
- Experiment 1 Average Enrichment: 0.41 log2
- Experiment 1 Rep 1 Enrichment: 0.11 log2
- Experiment 1 Rep 2 Enrichment: 0.71 log2
- Experiment 2 Average Enrichment: 0.44 log2
- Experiment 2 Rep 1 Enrichment: 0.39 log2
- Experiment 2 Rep 2 Enrichment: 0.49 log2

Substance: i53 + S49E two-hybrid fusion (designed binder)
- Experiment 1 Average Enrichment: 0.44 log2
- Experiment 1 Rep 1 Enrichment: 0.84 log2
- Experiment 1 Rep 2 Enrichment: 0.04 log2
- Experiment 2 Average Enrichment: 0.81 log2
- Experiment 2 Rep 1 Enrichment: 0.96 log2
- Experiment 2 Rep 2 Enrichment: 0.67 log2

Substance: i53 + S49G two-hybrid fusion (designed binder)
- Experiment 1 Average Enrichment: 0.02 log2
- Experiment 1 Rep 1 Enrichment: 0.27 log2
- Experiment 1 Rep 2 Enrichment: -0.23 log2
- Experiment 2 Average Enrichment: -0.31 log2
- Experiment 2 Rep 1 Enrichment: -0.57 log2
- Experiment 2 Rep 2 Enrichment: -0.05 log2

Substance: i53 + S49I two-hybrid fusion (designed binder)
- Experiment 1 Average Enrichment: 0.3 log2
- Experiment 1 Rep 1 Enrichment: 0.04 log2
- Experiment 1 Rep 2 Enrichment: 0.56 log2
- Experiment 2 Average Enrichment: 0.17 log2
- Experiment 2 Rep 1 Enrichment: 0.6 log2
- Experiment 2 Rep 2 Enrichment: -0.26 log2

Substance: i53 + S49L two-hybrid fusion (designed binder)
- Experiment 1 Average Enrichment: 1 log2
- Experiment 1 Rep 1 Enrichment: 0.85 log2
- Experiment 1 Rep 2 Enrichment: 1.15 log2
- Experiment 2 Average Enrichment: 0.88 log2
- Experiment 2 Rep 1 Enrichment: 0.97 log2
- Experiment 2 Rep 2 Enrichment: 0.8 log2
- Percent GFP Positive Rep 1: 18.8%
- Percent GFP Positive Rep 2: 13.6%
- Percent GFP Positive Rep 3: 17.7%
